Key:
Assay in all cases: holdup assay
Design in all cases: key: below the threshold = too weak to quantify, mostly under pKd 3.1 to 4
[1] = target: AHNAK1, Q09666
[2] = target: T1, APBA1_1, Q02410
T1 sequence (Q02410 651-752, limits assumed, looked up): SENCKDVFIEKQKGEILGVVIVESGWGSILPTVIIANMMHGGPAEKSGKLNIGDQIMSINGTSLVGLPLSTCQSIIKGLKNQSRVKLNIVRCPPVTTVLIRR

[3] = target: DLG1_1, Q12959
[4] = target: DLG1_3, Q12959
[5] = target: DLG2_2, Q15700
[6] = target: DLG2_3, Q15700
[7] = target: GIPC2, Q8TF65
Chain of GIPC2, Q8TF65 (Q8TF65 112-203): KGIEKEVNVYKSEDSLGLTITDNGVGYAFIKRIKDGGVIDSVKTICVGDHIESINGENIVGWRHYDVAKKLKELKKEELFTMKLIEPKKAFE

[8] = target: GOPC, Q9HD26
[9] = target: GORASP2, Q9H8Y8
[10] = target: GRID2IP_1, A4D2P6
Chain of GRID2IP_1, A4D2P6 (A4D2P6 1-87): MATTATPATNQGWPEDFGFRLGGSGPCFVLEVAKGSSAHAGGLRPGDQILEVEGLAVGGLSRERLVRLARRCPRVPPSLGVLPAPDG

[11] = target: T2, GRIP1_2, Q9Y3R0
T2 sequence (Q9Y3R0 145-248, limits assumed, looked up): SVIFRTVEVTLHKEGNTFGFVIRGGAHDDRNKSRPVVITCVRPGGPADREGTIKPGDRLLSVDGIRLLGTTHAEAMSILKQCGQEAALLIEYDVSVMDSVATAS

[12] = target: T3, GRIP1_3, Q9Y3R0
T3 sequence (Q9Y3R0 247-346, limits assumed, looked up): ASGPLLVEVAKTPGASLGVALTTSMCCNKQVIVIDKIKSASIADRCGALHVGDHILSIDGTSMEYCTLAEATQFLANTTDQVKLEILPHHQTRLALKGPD

[13] = target: T4, GRIP1_7, Q9Y3R0
T4 sequence (Q9Y3R0 999-1096, limits assumed, looked up): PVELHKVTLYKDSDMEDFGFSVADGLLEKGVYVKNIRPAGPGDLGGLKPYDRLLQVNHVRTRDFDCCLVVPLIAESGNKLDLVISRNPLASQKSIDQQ

[14] = target: GRIP2_7, Q9C0E4
Chain of GRIP2_7, Q9C0E4 (Q9C0E4 934-1023): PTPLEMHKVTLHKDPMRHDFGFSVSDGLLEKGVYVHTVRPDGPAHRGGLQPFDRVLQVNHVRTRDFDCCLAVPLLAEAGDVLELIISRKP

[15] = target: Inadl_1, Q8NI35
Chain of Inadl_1, Q8NI35 (Q8NI35 113-229): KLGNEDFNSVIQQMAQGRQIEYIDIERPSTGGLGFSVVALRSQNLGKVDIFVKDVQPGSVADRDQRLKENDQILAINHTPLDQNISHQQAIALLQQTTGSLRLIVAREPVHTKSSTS

[16] = target: LDB3, O75112
Chain of LDB3, O75112 (O75112 1-94): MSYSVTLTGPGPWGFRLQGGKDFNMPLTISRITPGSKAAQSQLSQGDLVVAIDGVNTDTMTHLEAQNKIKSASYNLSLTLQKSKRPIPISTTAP

[17] = target: T5, LIN7A, O14910
T5 sequence (O14910 103-200, limits assumed, looked up): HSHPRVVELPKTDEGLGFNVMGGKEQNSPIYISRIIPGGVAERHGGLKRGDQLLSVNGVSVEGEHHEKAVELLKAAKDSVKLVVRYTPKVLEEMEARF

[18] = target: MAGI2_2, Q86UL8
Chain of MAGI2_2, Q86UL8 (Q86UL8 410-522): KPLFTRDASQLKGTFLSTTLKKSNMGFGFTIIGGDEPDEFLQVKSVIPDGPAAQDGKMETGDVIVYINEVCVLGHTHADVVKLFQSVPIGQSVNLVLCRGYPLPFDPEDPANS

[19] = target: MAGI2_3, Q86UL8
Chain of MAGI2_3, Q86UL8 (Q86UL8 600-682): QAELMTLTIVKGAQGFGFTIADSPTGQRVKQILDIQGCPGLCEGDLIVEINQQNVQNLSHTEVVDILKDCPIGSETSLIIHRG

[20] = target: T6, MPDZ_10, O75970
T6 sequence (O75970 1624-1722, limits assumed, looked up): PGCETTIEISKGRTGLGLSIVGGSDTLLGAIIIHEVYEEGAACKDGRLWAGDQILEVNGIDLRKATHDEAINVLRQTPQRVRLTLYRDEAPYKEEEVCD

[21] = target: T7, NHERF3_1, Q5T2W1
T7 sequence (Q5T2W1 4-100, limits assumed, looked up): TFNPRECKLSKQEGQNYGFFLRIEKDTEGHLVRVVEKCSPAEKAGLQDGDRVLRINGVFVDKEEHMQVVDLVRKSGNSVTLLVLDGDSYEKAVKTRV

[22] = target: NHERF4_4, Q86UT5
Chain of NHERF4_4, Q86UT5 (Q86UT5 464-550): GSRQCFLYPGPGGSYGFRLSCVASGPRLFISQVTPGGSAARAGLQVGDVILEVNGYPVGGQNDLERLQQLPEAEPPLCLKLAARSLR

[23] = target: T8, PCLO, Q9Y6V0
T8 sequence (Q9Y6V0 4491-4600, limits assumed, looked up): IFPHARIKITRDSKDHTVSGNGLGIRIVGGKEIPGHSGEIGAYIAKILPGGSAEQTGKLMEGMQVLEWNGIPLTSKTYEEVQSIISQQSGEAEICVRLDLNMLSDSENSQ

[24] = target: T9, RADIL, Q96JH8
T9 sequence (Q96JH8 971-1071, limits assumed, looked up): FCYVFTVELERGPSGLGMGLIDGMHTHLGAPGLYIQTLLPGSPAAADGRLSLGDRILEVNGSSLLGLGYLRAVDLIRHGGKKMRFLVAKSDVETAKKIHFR

[25] = target: SCRIB_3, Q14160
Chain of SCRIB_3, Q14160 (Q14160 999-1103): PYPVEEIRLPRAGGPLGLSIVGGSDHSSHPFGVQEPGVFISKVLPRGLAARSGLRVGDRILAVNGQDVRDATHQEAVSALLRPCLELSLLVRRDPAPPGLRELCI

[26] = target: T10, TIAM2, Q8IVF5
T10 sequence (Q8IVF5 885-986, limits assumed, looked up): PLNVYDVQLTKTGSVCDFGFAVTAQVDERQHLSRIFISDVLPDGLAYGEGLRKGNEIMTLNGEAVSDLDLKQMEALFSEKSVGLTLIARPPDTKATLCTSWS

[27] = target: TJP1_2, Q07157
Chain of TJP1_2, Q07157 (Q07157 181-274): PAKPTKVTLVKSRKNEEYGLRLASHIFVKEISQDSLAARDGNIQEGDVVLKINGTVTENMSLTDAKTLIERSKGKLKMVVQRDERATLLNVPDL

[28] = target: TJP1_3, Q07157
Chain of TJP1_3, Q07157 (Q07157 416-512): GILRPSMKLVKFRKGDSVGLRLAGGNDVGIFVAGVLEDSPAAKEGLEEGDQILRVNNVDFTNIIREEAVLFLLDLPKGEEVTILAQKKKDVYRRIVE

[29] = plain residues with an end cap or a label only (N-terminal biotin on a linker: ado-ado)
[30] = plain residues with an end cap or a label only (N-terminal biotin on a linker: (peg)3)
[31] = plain residues with an end cap or a label only (N-terminal biotin on a linker: ahx)

Chain of AHNAK1, Q09666 (Q09666 4-100): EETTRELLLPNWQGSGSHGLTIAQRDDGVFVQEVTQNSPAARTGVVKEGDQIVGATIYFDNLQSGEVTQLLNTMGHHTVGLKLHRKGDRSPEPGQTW

For QRPYRRGSEI [KCNJ18, B7U540], the pKd [1, 29] was “below the threshold”, the pKd [2, 29] was “below the threshold” and the pKd [3, 29] was “below the threshold”. For the same binder, the pKd [4, 29] was “below the threshold”, the pKd [5, 29] was “below the threshold” and the pKd [6, 29] was 3.91. For the same binder, the pKd [7, 29] was “below the threshold”, the pKd [8, 29] was “below the threshold” and the pKd [9, 29] was “below the threshold”. The pKd [10, 29] was “below the threshold”, the pKd [11, 29] was “below the threshold” and the pKd [12, 29] was “below the threshold”. For the same binder, the pKd [13, 29] was “below the threshold”, the pKd [14, 29] was “below the threshold” and the pKd [15, 29] was “below the threshold”. The pKd [16, 29] was “below the threshold”, the pKd [17, 29] was “below the threshold” and the pKd [18, 29] was 3.8. For the same binder, the pKd [19, 29] was “below the threshold”, the pKd [20, 29] was “below the threshold” and the pKd [21, 29] was “below the threshold”. The pKd [22, 29] was “below the threshold”, the pKd [23, 29] was “below the threshold” and the pKd [24, 29] was “below the threshold”. The pKd [25, 29] was 4.05, the pKd [26, 29] was 4.11 and the pKd [27, 29] was “below the threshold”. For the same binder, the pKd [28, 29] was “below the threshold”.

RYEDTTLVEDTVL [WNV-NS5, Q9Q6P4] was tested, and the pKd [1, 30] was “below the threshold”, the pKd [2, 30] was “below the threshold” and the pKd [3, 30] was 3.58. For the same binder, the pKd [4, 30] was 3.51, the pKd [5, 30] was “below the threshold” and the pKd [6, 30] was “below the threshold”. The pKd [7, 30] was “below the threshold”, the pKd [8, 30] was 3.71 and the pKd [9, 30] was “below the threshold”. For the same binder, the pKd [10, 30] was “below the threshold”, the pKd [11, 30] was “below the threshold” and the pKd [12, 30] was “below the threshold”. For the same binder, the pKd [13, 30] was “below the threshold”, the pKd [14, 30] was “below the threshold” and the pKd [15, 30] was “below the threshold”. For the same binder, the pKd [16, 30] was “below the threshold”, the pKd [17, 30] was 3.59 and the pKd [18, 30] was “below the threshold”. For the same binder, the pKd [19, 30] was “below the threshold”, the pKd [20, 30] was “below the threshold” and the pKd [21, 30] was 4.43. For the same binder, the pKd [22, 30] was “below the threshold”, the pKd [23, 30] was “below the threshold” and the pKd [24, 30] was “below the threshold”. The pKd [25, 30] was 3.97, the pKd [26, 30] was “below the threshold” and the pKd [27, 30] was 3.55. For the same binder, the pKd [28, 30] was “below the threshold”.

With NISYRRESAI [KCNJ4, P48050] the pKd [1, 29] was “below the threshold”, the pKd [2, 29] was “below the threshold” and the pKd [3, 29] was 3.54. It also gave a pKd [4, 29] of 3.91, a pKd [5, 29] of 3.86 and a pKd [6, 29] of 4.36. For the same binder, the pKd [7, 29] was “below the threshold”, the pKd [8, 29] was “below the threshold” and the pKd [9, 29] was “below the threshold”. The pKd [10, 29] was “below the threshold”, the pKd [11, 29] was “below the threshold” and the pKd [12, 29] was “below the threshold”. For the same binder, the pKd [13, 29] was “below the threshold”, the pKd [14, 29] was “below the threshold” and the pKd [15, 29] was “below the threshold”. The pKd [16, 29] was “below the threshold”, the pKd [17, 29] was “below the threshold” and the pKd [18, 29] was 4.74. The pKd [19, 29] was “below the threshold”, the pKd [20, 29] was “below the threshold” and the pKd [21, 29] was 3.75. For the same binder, the pKd [22, 29] was “below the threshold”, the pKd [23, 29] was “below the threshold” and the pKd [24, 29] was “below the threshold”. The pKd [25, 29] was 4.91, the pKd [26, 29] was 4.07 and the pKd [27, 29] was “below the threshold”. The pKd [28, 29] was “below the threshold”.

For QDEKVKESYV [ABCA1, O95477], the pKd [1, 31] was “below the threshold”, the pKd [2, 31] was “below the threshold” and the pKd [3, 31] was 4.6. It also gave a pKd [4, 31] of 3.76, a pKd [5, 31] of 4.17 and a pKd [6, 31] of 4.63. The pKd [7, 31] was 4.26, the pKd [8, 31] was 4.28 and the pKd [9, 31] was 3.75. For the same binder, the pKd [10, 31] was “below the threshold”, the pKd [11, 31] was “below the threshold” and the pKd [12, 31] was “below the threshold”. The pKd [13, 31] was 3.49, the pKd [14, 31] was 3.59 and the pKd [15, 31] was “below the threshold”. For the same binder, the pKd [16, 31] was 3.53, the pKd [17, 31] was 3.89 and the pKd [18, 31] was 4.52. The pKd [19, 31] was 4.85, the pKd [20, 31] was 4.29 and the pKd [21, 31] was 5.12. For the same binder, the pKd [22, 31] was “below the threshold”, the pKd [23, 31] was “below the threshold” and the pKd [24, 31] was 4.89. For the same binder, the pKd [25, 31] was 4.45, the pKd [26, 31] was “below the threshold” and the pKd [27, 31] was “below the threshold”. For the same binder, the pKd [28, 31] was “below the threshold”.
